# In patent US11419948B2, “Functionalized microgels with fibrin binding elements” (Georgia Tech Research Corporation, priority 2013, dated 2022):
# T1: fibrin clots (Homo sapiens, UniProt P02671+P02675+P02679)
# T1 sequence (P02671 36-866 limits assumed): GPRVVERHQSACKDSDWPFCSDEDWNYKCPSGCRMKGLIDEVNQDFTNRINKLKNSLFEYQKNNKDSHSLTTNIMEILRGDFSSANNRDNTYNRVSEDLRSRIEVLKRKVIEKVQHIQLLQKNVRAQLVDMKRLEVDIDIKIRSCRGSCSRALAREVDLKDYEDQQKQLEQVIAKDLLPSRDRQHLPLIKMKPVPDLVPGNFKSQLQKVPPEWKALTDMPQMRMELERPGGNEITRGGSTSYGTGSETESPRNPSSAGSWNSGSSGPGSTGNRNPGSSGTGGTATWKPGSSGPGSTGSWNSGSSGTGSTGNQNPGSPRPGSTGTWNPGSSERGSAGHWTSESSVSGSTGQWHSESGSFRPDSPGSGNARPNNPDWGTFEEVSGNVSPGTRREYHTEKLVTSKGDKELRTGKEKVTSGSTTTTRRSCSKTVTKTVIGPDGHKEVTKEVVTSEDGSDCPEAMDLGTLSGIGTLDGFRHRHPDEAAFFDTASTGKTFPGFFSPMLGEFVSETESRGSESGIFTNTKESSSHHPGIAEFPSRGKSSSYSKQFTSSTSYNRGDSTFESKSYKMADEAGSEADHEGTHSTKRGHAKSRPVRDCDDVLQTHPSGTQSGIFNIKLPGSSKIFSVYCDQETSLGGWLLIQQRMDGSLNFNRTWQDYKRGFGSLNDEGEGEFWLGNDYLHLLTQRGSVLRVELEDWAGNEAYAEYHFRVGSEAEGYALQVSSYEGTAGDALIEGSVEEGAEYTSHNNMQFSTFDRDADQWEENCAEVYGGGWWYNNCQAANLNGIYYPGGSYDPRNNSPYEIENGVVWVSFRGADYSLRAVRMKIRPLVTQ
# T1 sequence (P02675 45-491 limits assumed): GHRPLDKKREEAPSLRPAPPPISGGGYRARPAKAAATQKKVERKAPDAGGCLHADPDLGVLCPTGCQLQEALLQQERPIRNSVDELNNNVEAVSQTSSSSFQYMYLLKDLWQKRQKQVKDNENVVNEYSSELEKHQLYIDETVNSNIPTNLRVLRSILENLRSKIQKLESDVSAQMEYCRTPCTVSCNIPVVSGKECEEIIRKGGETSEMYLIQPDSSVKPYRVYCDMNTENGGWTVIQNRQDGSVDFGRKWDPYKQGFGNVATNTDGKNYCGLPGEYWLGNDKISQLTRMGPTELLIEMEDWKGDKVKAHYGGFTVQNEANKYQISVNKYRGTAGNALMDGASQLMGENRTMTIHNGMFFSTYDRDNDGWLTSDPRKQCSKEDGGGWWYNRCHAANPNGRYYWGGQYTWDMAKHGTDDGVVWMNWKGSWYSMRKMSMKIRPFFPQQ
# T1 sequence (P02679 27-453): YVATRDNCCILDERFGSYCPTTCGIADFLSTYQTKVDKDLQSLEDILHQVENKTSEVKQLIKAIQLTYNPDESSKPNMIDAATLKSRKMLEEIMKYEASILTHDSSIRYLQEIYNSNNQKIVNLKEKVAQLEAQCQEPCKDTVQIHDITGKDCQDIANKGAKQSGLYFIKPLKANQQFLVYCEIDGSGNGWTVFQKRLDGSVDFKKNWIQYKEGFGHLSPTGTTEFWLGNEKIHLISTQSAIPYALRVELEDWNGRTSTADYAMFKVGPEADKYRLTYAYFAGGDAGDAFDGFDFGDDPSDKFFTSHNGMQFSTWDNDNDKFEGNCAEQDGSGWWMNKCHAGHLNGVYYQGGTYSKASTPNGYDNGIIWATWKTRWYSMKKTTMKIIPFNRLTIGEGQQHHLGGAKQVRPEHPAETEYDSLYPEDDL
# How the values were obtained:
# fibrin clots = biological target: T1, fibrin clots; experiment: Clot polymerization/degradation assay (thrombin, tPA, plasminogen; turbidity); type: biochemical; details: versus control clots or clots with S11-ULC microgels
# Description: Thrombin-initiated fibrin polymerization and degradation assays were used to evaluate clotting rates and persistence in the presence of H6 and S11 (control) ULC microgels at different microgel and fibrinogen concentrations. Competing polymerization and degradation reactions were created with a 96 well plate, and a final volume of 100 μL per well. Two solutions were made, a fibrinogen-microgel solution that was loaded initially, and a thrombin-tPA (tissue Plasminogen Activator)-plasminogen solution that was added in a 1:1 volume ratio. Final concentrations in each well were 2 mg/mL microgel and 2 mg/mL of fibrinogen, 5 mMol Ca^+, 0.25 U/mL of human thrombin (Enzyme Research Laboratories, Inc., South Bend, Ind.), 0.29 μg/mL of tissue Plasminogen Activator(tPA), and 10.8 μg/mL of Plasminogen. The remainder of the volume in the thrombin/tPA/plasminogen solution was made up of 25 mM Hepes, 150 mM NaCl buffer. Turbidity curves were be generated from absorbance measurements (SpectraMax M2 Microplate Reader, Molecular Devices, Sunnyvale, Calif.) at 350 nm, with reads taken every thirty seconds.
# platelet-poor plasma = experiment: Gross clot contraction of platelet-poor plasma clots; type: biochemical
# Excerpt: Clot collapse was characterized at the macroscopic level by performing standard gross clot contraction experiments routinely utilized by platelet biologists, Thomas, et al., BMC Cell Biology, 8:46 (2007); Suzuki-Inoue, et al., Thrombosis Research, 120:251-258 (2007). It was expected that particle deformability would play a large role in the ability of fibrin-binding microgels to induce gross clot deformation and architectural changes. Clots were created through the addition of 1 U/mL thrombin (final concentration) to platelet-poor plasma containing microgels of varying crosslinking. Clot collapse was observed within 48 hours in the presence of PLPs but not under any other conditions tested (FIG. 4B). […] Because natural platelet mediated contraction decreases clot degradation rates, we analyzed clot degradation rates in the absence or presence of PLPs. […] Because clot contraction was not observed in the presence of non-fibrin binding ULC microgels or in the presence of fibrin-binding BIS crosslinked microgels or hard PS particles, we conclude that, while enhancement of clotting in vitro only requires high affinity and multivalency for fibrin, particle deformability is critical to the ability of fibrin-binding particles to induce clot collapse. To fully recapitulate the hemostatic functions of platelets (enhancement of dotting and clot contraction following hemostasis) it appears that both high fibrin affinity and high particle deformability are required.
molecule,measurement,setting,value
PLPs: ultra-low crosslinked pNIPAm-AAc microgels conjugated to fibrin-specific sdFv H6 (conjugate) VH: QVQLLESGGGLVQPGGSLRLSCAASGDRFTHNDMGWVRQAPGKGLEWVSTIPTTDGSTYYADSVKGRFTISRDNSKSTLYLQMNSLRAEDTAVYYCATGYMWKAPAYVKYWGQGTLVTVSSAAAEQKLISEEDLNSAAHYTDIG,clot degradation,fibrin clots,more resistant to degradation
same,overall degree of clot contraction,platelet-poor plasma; platelet-poor plasma with particles versus native platelet-rich plasma,No significant differences
same,time to clot collapse,"platelet-poor plasma; platelet-poor plasma, 1 U/mL thrombin",≤ 48 h
same,rate of induced clot collapse,platelet-poor plasma; versus native platelet-containing clots,significantly less
